Results taken from patent US20150111836A1, “CELLULAR APOBEC3 PROTEINS AND MODULATORS THEREOF FOR REGULATING DNA REPAIR PROCESSES AND TREATING PROLIFERATIVE DISEASES” (priority 2012, published 2015).

What was measured:
[1] = biological target: purified recombinant A3G-His6 (human APOBEC3G with C-terminal Myc-His6 tag, expressed in 293T cells) (human) (UniProt Q9HC16); assay: cell-based or functional assay
[2] = biological target: virion-associated A3G (endogenous A3G of H9 cells packaged in HIV-1 particles) (human) (UniProt Q9HC16); assay: cell-based or functional assay

purified recombinant A3G-His6 (human APOBEC3G with C-terminal Myc-His6 tag, expressed in 293T cells) (human), sequence (Q9HC16 whole entry): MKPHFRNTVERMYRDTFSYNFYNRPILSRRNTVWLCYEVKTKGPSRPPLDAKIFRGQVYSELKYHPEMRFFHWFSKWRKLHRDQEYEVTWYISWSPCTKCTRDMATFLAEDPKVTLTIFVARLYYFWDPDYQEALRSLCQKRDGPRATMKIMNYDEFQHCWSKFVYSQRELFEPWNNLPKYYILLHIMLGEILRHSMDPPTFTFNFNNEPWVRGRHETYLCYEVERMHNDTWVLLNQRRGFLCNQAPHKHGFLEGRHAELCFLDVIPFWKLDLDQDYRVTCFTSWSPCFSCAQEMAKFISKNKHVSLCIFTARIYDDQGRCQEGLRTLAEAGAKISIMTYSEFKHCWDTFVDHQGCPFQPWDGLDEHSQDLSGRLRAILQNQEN

Row | Substance | inhibition of A3G deaminase activity [1] | further results
1 | BSA (from UniProt P02769 25-607) | – | A3G deaminase activity [1]: 10 µM
2 | Vif9-23 peptide | 1 µM | –
3 | Vif37-51 peptide | 1 µM | –
4 | Vif101-115 peptide | 1 µM | –
5 | Vif113-127 peptide | 1 µM | –
6 | Vif molecules associated with HIV-1 particles (wt HIV-1 HXB2 virions) (from UniProt P05900 1-192) | – | specific activity of virion-associated A3G deaminase (wt vs Δvif particles, normalized to A3G protein content) [2]: 36.5%
